Measurements published in the supplement of paper PMC9170038.

System: MS2 coat protein
Assay: apparent KD of MS2 coat protein; designed switch direction (-1 OFF switch, 1 ON switch): -1; higher = weaker reporter binding
Method in brief: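 For each design, the apparent KD is the median over clusters of curves fitted to normalised cluster fluorescence. Clusters held RNA switches with common flanks, transcribed on Illumina chips by stalled E. coli RNA polymerase. These were titrated with SNAP-549-labelled MS2 coat protein, doubling from 0.7 or 1.5 nM to 3 µM, without input, with 200 uM small-molecule ligand, or with an oligonucleotide input.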

[1] = input ligand: microRNA oligo, concentration not stated
[2] = Eterna round: R95, input ligand: microRNA oligo, concentration not stated
[3] = Eterna round: R95, input ligand: FMN 200 uM
[4] = Eterna round: R95, input ligand: none

Sequence	apparent KD of MS2 coat protein (input ligand: FMN 200 uM) [nM]	apparent KD of MS2 coat protein [1] [nM]	apparent KD of MS2 coat protein (input ligand: none) [nM]	apparent KD of MS2 coat protein [2] [nM]	apparent KD of MS2 coat protein [3] [nM]	apparent KD of MS2 coat protein [4] [nM]
CCCAGUUACGGAGGAUAUUGUACAUGAGGAUCACCCAUGUAAUAAAUGAGGAUUUCGGGUGUCUACAAGAAGGCCGGGAUAGGC [Ostracism 18 - Jieux - Exclusion NG 2] (Eterna round: R96, puzzle: Exclusion NG 2)	262	85.3	66			
GGAAAAAAAGUGAGGAUAUCCGGAGGGAAACCUCCGGAGAAGGCACAUGAGGAUCACCCAUGUAAAAAAAAAAA [AK-MS2ROC-r4-Bmoexclusion4-1] (Eterna round: R97, puzzle: Brourd's mod of Exclusion 4)	59.9		30.5			
GGUUGGCGAGGAUAUACAUGAGGAUCACCCAUGUGAGAGAAAAAAGUGAGUAAGAAAAGUAGAAGGCGCUGACG [salish99-ex3-33] (Eterna round: R96, puzzle: Exclusion 3)	401	51	47.3			
UGUUGUCGCGUAGGAUAUGAGGAUCACCCAUAUAGAGGAUAUGAAAAGAAGGCUCUGAGGAUUACCCAGAAGGACGGGACAACU [pwkr exNG2 2xF5 2xFMN.22] (Eterna round: R96, puzzle: Exclusion NG 2)	1180	132	155			
GCCGUAAGUGUGAGGAUAUACCUAUGGAAACAUAGGUAGAAGGCACAUGAGGAUCACCCAUGUCCUUAAUCGGC [Mat - Exclusion 4 - Eli Mod - D4] (Eterna round: R97, puzzle: Brourd's mod of Exclusion 4)	366		224			
UAUAUAUAGUAAGGAUAUGUAUAUAUUUGAUAAACAGAAGGUACUGACAUGAGGAUCACCCAUGUUUUAGUGUGGGCAUGUAGA [JMF's solution 64] (Eterna round: R96, puzzle: Exclusion NG 1)		48.4				
UUAAAUCAUGUAGGAUAUGCGUGGCGAAGCUAUGCAGAAGGACAUGAGGAUCACCCAUGUUCUUGCGUCUGCGUACAGAUGCAA [JL ENG1 1.09] (Eterna round: R96, puzzle: Exclusion NG 1)	118	26	37.2			
GGUGCGUAUGUGAGGAUAUGCUGGUCCUUGGCUCAGCAGAAGGCACAUGAGGAUCACCCAUGUGGUGUCGUACC [salish99_Bmod_Ex4_027] (puzzle: Brourd's mod of Exclusion 4)				229		
UUGAACCCGGUAGGAUAUAUUGUGGGCAAACAUGGAACAACAUGAGGAUCACCCAUGUAAUUUAGGUAGAAGGGCCAAAAGAUU [Excl-NG2-LRO06] (Eterna round: R96, puzzle: Exclusion NG 2)	72.1	61	69.9			
CUUUUGUGAGGAUAUUAGUAUUAAAUAAAUAAAAUUACUACUGAGAAGGCACAUGAGGAUCACCCAUGUUCCUC [salish99_ex4_r3_050] (puzzle: Exclusion 4)				33.6		
GGUGCGUAUGUGAGGAUAUGCUGGUCCUUGGCUCGGCAGAAGGCACAUGAGGAUCACCCAUGUGGUGUCGUACG [salish99_Bmod_ex4_063] (puzzle: Brourd's mod of Exclusion 4)				36.5	249	54.4
CAUUGUGUUGAGGAUAUGCGCCGGCUCGCUGGCGCAGAAGGCGGCACAUGAGGAUCACCCAUGUCAGUUCGCGA [salish99_ex6_r004_416] (Eterna round: R97, puzzle: Exclusion 6)	452		38			
ACUGGUCGAGGAUAUACAAUCGUGCUUCGGCACGUAAGGUCACAUGAGGAUCACCCAUGUAGAAGGCGACCAGU [E2/2-A3] (Eterna round: R97, puzzle: Exclusion 2)	226		29.5			
AGUACUAUCACGAAAGUGAUAGUACAAAAUAACAAGUGAACAUGAGGAUCACCCAUGUCCUCAUUUGCUCGUCUUAU [Sensor 3 - 18] (puzzle: Sensor v3, turn-off variant 2)				925	418	421
AAUAACAGAGGAUAUACUAUUUUAUGUGUUUAUUGUUUUAAACAUGAGGAUCACCCAUGUAGAAGGCUGAAUGA [JMF 59] (puzzle: Exclusion 2)				34.4		
CGUGACUCAGGAUAUCUAUUGUAUCACAUGAGGAUCACCCAUGUCCAGCGAAAGCUGGAGGGAGAAGGGAGUCACG [Fiskers Ex 5 - 46] (puzzle: Exclusion 5)				204	48.6	186
AGAAGACAUGAGGAUCACCCAUGUAAGGAUAUCGGAGGUAAGGGAGGAAGGAGAUAGGCGAGAAGGUACAGGUG [JR_Exclu1_Sub093] (puzzle: Exclusion 1)				53.1	39	51.7
CAGUACUGAGGAUAUACAUGAGGAUCACCCAUGUGUUCCAGCUAGGAAACUAGCUAAAGUAGAAGGCAGUACUG [salish99_ex3_r3_092x] (Eterna round: R96, puzzle: Exclusion 3)		17.7				
UUUUACAUAGGAUAUAGUCUUUUUUACAUGAGGAUCACCCAUGUCUCUCUUUUUUUUUUUCUAGAAGGAUGUUUUU [JR_E5_Sub017] (puzzle: Exclusion 5)				16.8		
CAGUUCUGACGGAGAUCCAACAUGAGGAUCACCCAUGUCUCAAAAGCUUUUUGCUCGUCUUAUCCUCCUCAGGACUC [Mat - Sensor, turn-off var - Eli Mod - D58] (Eterna round: R97, puzzle: Sensor, turn-off variant 1)	16.4		16.4			
UCAUGUUAGCAGGAUAUGCUAUUUAUUUUUUAUGCAGAAGGGCUUACAUGAGGAUCACCCAUGUGUUAGGUUUU [JR_E6_Sub073] (puzzle: Exclusion 6)				29.7		
GGUGCGUAUGUGAGGAUAUGCUGGUCCUUGGAUCAGCAGAAGGCACAUGAGGAUCACCCAUGUGGUGUCGUUCC [salish99_Bmod_Ex4_020] (puzzle: Brourd's mod of Exclusion 4)				363		
UUUUUCGAACAAGCUUCGUACAUGAGGAUCACCCAUGUCGGUAGAUUUGAGUAGGUUUGGAUGGAAGUUCGUCUUAU [JR_SV3TOV1_Sub086] (puzzle: Sensor v3, turn-off variant 1)				65.9	28.2	32.9
ACAAGCUUAAUCUGUAUGAACAUGAGGAUCACCCAUGUAAAAGGGAAUACUUUUGGGUUUUUUAUAGCUCGUCUUAU [JR_STOV1_Sub019] (Eterna round: R97, puzzle: Sensor, turn-off variant 1)	52		49.5			
AACGUGCUGCGAGGAUAUACAUGAGGAUCACCCAUGUGGAUGUCUGAGGCAAAGCCUCAGACAAUGUAGAAGGCGCAGUACGAA [Mat - Exclusion NG 2 - Mod of JL - D57] (Eterna round: R96, puzzle: Exclusion NG 2)	72.5	18.7	19.6			
